{
  "source": "paper PMC6151752",
  "about": "“Characterization, Function, and Transcriptional Profiling Analysis of 3-Hydroxy-3-methylglutaryl-CoA Synthase Gene (GbHMGS1) towards Stresses and Exogenous Hormone Treatments in Ginkgo biloba” (Molecules : A Journal of Synthetic Chemistry and Natural …, 2017)",
  "substrate": "CC(=O)CC(=O)SCCNC(=O)CCNC(=O)[C@H](O)C(C)(C)COP(=O)(O)OP(=O)(O)OC[C@H]1O[C@@H](n2cnc3c(N)ncnc32)[C@H](O)[C@@H]1OP(=O)(O)O",
  "assay": "initial rate versus acetoacetyl-CoA concentration, Michaelis-Menten fit",
  "format": "biochemical, Ginkgo biloba",
  "settings": "acetoacetyl-CoA varied 20-100 μM (Km lies far above the range); pH, temperature and acetyl-CoA concentration not given",
  "source_text": "initial rate versus acetoacetyl-CoA concentration, Michaelis-Menten fit on GbHMGS1",
  "data": [
    {"protein": "GbHMGS1 (Ginkgo biloba) (protein) MASHPENVGILAMDIYFPSTCVQQDALETFDGVSKGKYTIGLGQDCMAFCMDLEDVISMSLTVVSSLLDKYGIDPKRIGRLEVGSETVIDKSKSIKTWLMQIFEECGNSEIEGVDSTNACYGGTAALLNCVNWVESRSWDGRYGLVVSTDSAVYAEGPARPTGGAAAVAMLIGPNAPIVFESKYRGTHMSHAYDFYKPNLASEYPVVDGKLSQTCYLMGLDSCYKRFCNRFEEGEGRQFSLSDADYVAFHSPYNKLVQKSFARLLFNDFSRHASSVGKDAQEKLEPYAGLSDEDSYSSRELEKVSQQVARPLYDVKVQPSTLLPKQVGNMYTASLYAAFASIIHNEHDTLEGQRVLMFSYGSGLASTMFSLKIREGQHPFTLTNIADVMDVSSKLDSRHVLSPEDFMVNMKLMETLYGAKDFISCSDHNLLRSGTFYLTQVDSMYRRFYAQKVASPDDTHEKVKLANGIIHDQL", "values": [
      {"measurement": "Km", "result": "689 ± 32.6", "unit": "µM"},
      {"measurement": "Vmax", "result": 0.0371, "unit": "µM/min"},
      {"measurement": "kcat", "result": "3.26 ± 0.218", "unit": "s⁻¹"},
      {"measurement": "kcat/Km", "result": "4670 ± 167", "unit": "M⁻¹ s⁻¹"}
    ]}
  ]
}
